Assay results: paper PMC12624773, “Receptor activity–modifying protein 3 enhances GLP-1-mediated insulin secretion” (The Journal of Biological Chemistry, 2025)
Entries after “also recorded” stand apart in the source; their conditions may differ. Numbered stars: 1 amine (or outer) side, 2 acyl side, 3 side chain; on linkers, the order of the positions; unused ones are H or OH. Bridge positions count the residues as written; N and C are the ends. Square brackets hold non-standard residues; d marks the D form. Peptide text beside a SMILES is read from it. X1 = CC(=O)NC(C(=O)OC(C(C)C)C(N[*:1])C(=O)[*:2])C(O)C(C)C; PhLac = O=C(O)[CH](O)Cc1ccccc1; NMeT = CN[CH](C(=O)O)[CH](C)O; NMeA = CN[CH](C)C(=O)O; NMeDha = C=C(NC)C(=O)O

Tests used:
[1] = test system: GIPR; settings: Min6 B1, 8-min stimulation, n = 4
[2] = test system: INS-1 832/3 cells; settings: 10 nM GIP, […] glucose
[3] = test system: Min6 B1 cells; experiment: Insulin secretion in siRNA-treated Min6 B1 cells; settings: 10 nM and 1 nM agonist, n = 4
[4] = molecular target: T1, Nluc–GLP-1R (Homo sapiens, UniProt P43220); type: cell-based; parameters: signal peptide of murine serotonin 5-HT3R (sig) (N); expressed in transfected cells; host or cells: HEK293T; settings: HEK293T; over the concentration range tested
T1 sequence (P43220 24-463): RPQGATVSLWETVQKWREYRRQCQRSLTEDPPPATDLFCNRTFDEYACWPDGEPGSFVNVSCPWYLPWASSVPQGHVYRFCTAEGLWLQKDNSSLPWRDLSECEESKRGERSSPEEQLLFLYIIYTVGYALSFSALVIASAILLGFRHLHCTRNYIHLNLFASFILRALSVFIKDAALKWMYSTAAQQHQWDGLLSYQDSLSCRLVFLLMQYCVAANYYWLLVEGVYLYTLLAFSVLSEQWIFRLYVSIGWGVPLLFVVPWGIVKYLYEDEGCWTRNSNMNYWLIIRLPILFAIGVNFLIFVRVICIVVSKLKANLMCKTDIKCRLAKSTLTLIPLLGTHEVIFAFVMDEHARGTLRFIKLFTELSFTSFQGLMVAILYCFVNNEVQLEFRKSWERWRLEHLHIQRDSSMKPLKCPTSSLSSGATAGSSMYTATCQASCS

[5] = molecular target: T1, Nluc–GLP-1R; type: cell-based; parameters: signal peptide of murine serotonin 5-HT3R (sig) (N); expressed in transfected cells; host or cells: HEK293T; settings: HEK293T, absence of RAMP3
[6] = test system: CLR–RAMP1; settings: ref [43]; cited from earlier work
Excerpt: As RAMP3 expression varies between tissues, it is possible that by directly targeting this complex, tissue-specific receptor activation could be facilitated. […] Agonists that have reduced affinity for the RAMP3 complex over the receptor alone ...

[7] = test system: GCGR with RAMP2; settings: GCGR coexpressed with RAMP2; ref [13]; cited from earlier work
[8] = molecular target: T1, Nluc–GLP-1R
[9] = molecular target: GLP-1R–Nluc (human) (UniProt P43220)
GLP-1R–Nluc (human), sequence (P43220 24-463): as above

[10] = test system: INS-1 832/3 cells; experiment: Glucose-stimulated insulin secretion in INS-1 832/3 cells, GLP-1R agonists; type: cell-based, rat; settings: 10 nM GLP-1; for effect of inhibitor on GLP-1-mediated insulin secretion: vector- and RAMP3-transfected, 30 min pretreatment, normalized to 10 nM GLP-1 + 0.1% DMSO
[11] = ref [3]; cited from earlier work
Excerpt: The incretin effect, whereby oral glucose elevates plasma insulin levels to a greater degree than intravenous administration, was first observed in 1964 ([1]). This is mediated by incretin hormones, the best known of which are GLP-1 and the glucose-dependent insulinotropic polypeptide (GIP). […] However, newer m ...

Compound: glucose-dependent insulinotropic polypeptide [GIP]
- effect of RAMP3 siRNA on cAMP accumulation [1]: no effect
- effect of RAMP1 transfection on insulin secretion [2]: increased insulin secretion
- effect of RAMP3 transfection on insulin secretion [2]: increased insulin secretion
- effect of RAMP3 knockdown on insulin secretion [3]: unaffected

Compound: GLP-1 (9–36)
- cAMP production [4]: did not elicit sufficient cAMP production over the concentration range tested
- (Ca^2+)i mobilization [5]: unable to elicit any (Ca^2+)i mobilization

Compound: NCCCC[C@H](NC(=O)[C@@H](Cc1cc(Br)c(O)c(Br)c1)NC(=O)N1CCC(N2Cc3ccccc3NC2=O)CC1)C(=O)N1CCN(c2ccncc2)CC1 [BIBN 4096 BS]
- disruption of receptor–RAMP interaction [6]: disrupt the interaction

Compound: glucagon: agonist of GCGR (cited)
- effect of RAMP2 on Gαs coupling/response at GCGR [7]: increasing Gαs coupling

Compound: liraglutide (peptide)
- Ca^2+ mobilization, HEK293T, + 2xFLAG-RAMP3; pEC50 [8]: 7.5 pEC50
- Ca^2+ mobilization, HEK293T, + FLAG-RAMP3; pEC50 [8]: 7.4 pEC50
- Ca^2+ mobilization, HEK293T, receptor alone; pEC50 [8]: 7.5 pEC50
- cAMP accumulation, 8-min stimulation, HEK293T, + 2xFLAG-RAMP3; pEC50 [8]: 9.9 pEC50
- cAMP accumulation, 8-min stimulation, HEK293T, + FLAG-RAMP3; pEC50 [8]: 10.3 pEC50
- cAMP accumulation, 30-min stimulation, HEK293T, + 2xFLAG-RAMP3; pEC50 [8]: 10.1 pEC50
- cAMP accumulation, 30-min stimulation, HEK293T, + FLAG-RAMP3; pEC50 [8]: 10.3 pEC50
- cAMP accumulation, 30-min stimulation, HEK293T, receptor alone; pEC50 [8]: 10.4 pEC50
- internalization (loss of BRET with RIT-Venus), HEK293T, + 2xFLAG-RAMP3; pEC50 [9]: 7.6 pEC50
- internalization (loss of BRET with RIT-Venus), HEK293T, + FLAG-RAMP3; pEC50 [9]: 8.2 pEC50
- internalization (loss of BRET with RIT-Venus), HEK293T, receptor alone; pEC50 [9]: 8.5 pEC50
- β-arrestin1–YFP recruitment (BRET), HEK293T, + 2xFLAG-RAMP3; pEC50 [9]: 7.5 pEC50
- β-arrestin1–YFP recruitment (BRET), HEK293T, + FLAG-RAMP3; pEC50 [9]: 7.1 pEC50
- β-arrestin1–YFP recruitment (BRET), HEK293T, receptor alone; pEC50 [9]: 7 pEC50
- β-arrestin2–YFP recruitment (BRET), HEK293T, + 2xFLAG-RAMP3; pEC50 [9]: 7.5 pEC50
- β-arrestin2–YFP recruitment (BRET), HEK293T, + FLAG-RAMP3; pEC50 [9]: 7.1 pEC50
- β-arrestin2–YFP recruitment (BRET), HEK293T, receptor alone; pEC50 [9]: 7.3 pEC50

Compound: Nc1ncnc2c1nc(Br)n2C1OC2COP(O)(=S)OC2C1O (stereo not shown) [Rp-8-Br-cAMPs]
- effect of inhibitor on GLP-1-mediated insulin secretion [10]: no effect; also recorded: unaffected

Compound: C=C1C(=O)NC(C)C(=O)N(C)C(C)C(=O)NC(C(OC(=O)C(NC(C)=O)C(O)C(C)C)C(C)C)C(=O)N(C)C(C(C)OC)C(=O)OC(C)C(NC(C)=O)C(=O)OC(Cc2ccccc2)C(=O)N1C (stereo not shown) [YM-254890] (Ac-T[PhLac][NMeDha]A[NMeA][X1][NMeT](Me); ester 1-C; configuration not given here)
- effect of inhibitor on GLP-1-mediated insulin secretion, RAMP3 vs vector ([10]; YM-254890 100 nM, PTX 0.2 ng/μl): decreased insulin secretion significantly only when RAMP3 was overexpressed; also recorded: only reduced insulin secretion in cells overexpressing RAMP3

Compound: exendin-4 (from UniProt P26349 48-87) (peptide)
- Ca^2+ mobilization, HEK293T, + 2xFLAG-RAMP3; pEC50 [8]: 8.6 pEC50
- Ca^2+ mobilization, HEK293T, receptor alone; pEC50 [8]: 6.9 pEC50
- cAMP accumulation, 8-min stimulation, HEK293T, + 2xFLAG-RAMP3; pEC50 [8]: 11.3 pEC50
- cAMP accumulation, 8-min stimulation, HEK293T, + FLAG-RAMP3; pEC50 [8]: 11.6 pEC50
- cAMP accumulation, 8-min stimulation, HEK293T, receptor alone; pEC50 [8]: 11.7 pEC50
- cAMP accumulation, 30-min stimulation, HEK293T, + 2xFLAG-RAMP3; pEC50 [8]: 12.4 pEC50
- cAMP accumulation, 30-min stimulation, HEK293T, + FLAG-RAMP3; pEC50 [8]: 12.8 pEC50
- cAMP accumulation, 30-min stimulation, HEK293T, receptor alone; pEC50 [8]: 13.1 pEC50

Compound: Semaglutide
- protection against neurodegeneration and neuroinflammation [11]: protect against neurodegeneration and neuroinflammation

Compound: CC(C)(C)c1cc(C(=O)/C(C#N)=N/Nc2cccc(Cl)c2)no1 [ESI-09]
- effect of inhibitor on GLP-1-mediated insulin secretion [10]: significantly decreased; also recorded: significantly reduced insulin secretion
